Assay results from patent publication US20230364234A1.

Columns and labels:
[1] = target: CD4-10-17b CAR with an inserted myc epitope, expressed on cells transduced with the SFFV/CAR-T-myc/GFP lentivirus (human) (UniProt P01730); assay: flow cytometry, primary human T cells transduced with SFFV/CAR-T-myc/GFP, gated CD4+GFP+
[2] = target: CD4-10-17b CAR with an inserted myc epitope, expressed on cells transduced with the SFFV/CAR-T-myc/GFP lentivirus (human) (UniProt P01730); assay: cell-based or functional assay
[3] = target: CD4-10-17b CAR with an inserted myc epitope, expressed on cells transduced with the SFFV/CAR-T-myc/GFP lentivirus (human) (UniProt P01730); assay: flow cytometry, primary human T cells transduced with SFFV/CAR-T-myc/GFP, gated CD8+GFP+

**Q.** Which percent of transduced CD4+ T cells bound [1] does the source give for 9E10 anti-myc epitope antibody here?
**A.** The percent of transduced CD4+ T cells bound was 35%.

**Q.** What about the IFN-γ production by CD4+ GFP+ T cells (flow cytometry, overnight stimulation) [2] of the same substance?
**A.** Its IFN-γ production by CD4+ GFP+ T cells (flow cytometry, overnight stimulation) is 3 fold.

**Q.** What about the percent of transduced CD8+ T cells bound [3] of the same substance?
**A.** The percent of transduced CD8+ T cells bound was 25%.
